T1: KKRASAA
T1 chain: KKRASAA

T2: AKRASPA
T2 chain: AKRASPA

T3: AKRASEA
T3 chain: AKRASEA

T4: AAAASKR
T4 chain: AAAASKR

T5: AKRPSAA
T5 chain: AKRPSAA

T6: EKRASAA
T6 chain: EKRASAA

T7: AARASAA
T7 chain: AARASAA

T8: AKRESAA
T8 chain: AKRESAA

T9: KKAASAA
T9 chain: KKAASAA

T10: AAKRSAA
T10 chain: AAKRSAA

T11: ARKASAA
T11 chain: ARKASAA

T12: AAKKSAA
T12 chain: AAKKSAA

T13: KKRKSAA
T13 chain: KKRKSAA

T14: PKRASAA
T14 chain: PKRASAA

T15: RKKKSAA
T15 chain: RKKKSAA

T16: ARRASAA
T16 chain: ARRASAA

T17: AKAASAA
T17 chain: AKAASAA

T18: AKRKSAA
T18 chain: AKRKSAA

T19: AKRASAA
T19 chain: AKRASAA

B1: γ-PAK activated by autophosphorylation in the presence of Cdc42(GTPγS) (protein)
chain: SDNGELEDKPPAPPVRMSSTIFSTGGKDPLSANHSLKPLPSVPEEKKPRNKIISIFSGTEKGSKKKEKERPEISPPSDFEHTIHVGFDAVTGEFTGMPEQWARLLQTSNITKLEQKKNPQAVLDVLKFYDSNTVKQKYLSFTPPEKDGFPSGAPALNTKVSETSAVVTEEDDDDEEAAPPVIAPRPDHTKSIYTRSVIDPIPAPVGDSHVDSGAKSSDKQKKKTKMTDEEIMEKLRTIVSIGDPKKKYTRYEKIGQGASGTVFTATDVALGQEVAIKQINLQKQPKKELIINEILVMKELKNPNIVNFLDSYLVGDELFVVMEYLAGGSLTDVVTETCMDEAQIAAVCRECLQALEFLHANQVIHRDIKSDNVLLGMEGSVKLTDFGFCAQITPEQSKRSTMVGTPYWMAPEVVTRKAYGPKVDIWSLGIMAIEMVEGEPPYLNENPLRALYLIATNGTPELQNPEKLSPIFRDFLNRCLEMDVEKRGSAKELLQHPFLKLAKPLSSLTPLIMAAKEAMKSNR
B2: Inactive γ-PAK (protein)
chain: SDNGELEDKPPAPPVRMSSTIFSTGGKDPLSANHSLKPLPSVPEEKKPRNKIISIFSGTEKGSKKKEKERPEISPPSDFEHTIHVGFDAVTGEFTGMPEQWARLLQTSNITKLEQKKNPQAVLDVLKFYDSNTVKQKYLSFTPPEKDGFPSGAPALNTKVSETSAVVTEEDDDDEEAAPPVIAPRPDHTKSIYTRSVIDPIPAPVGDSHVDSGAKSSDKQKKKTKMTDEEIMEKLRTIVSIGDPKKKYTRYEKIGQGASGTVFTATDVALGQEVAIKQINLQKQPKKELIINEILVMKELKNPNIVNFLDSYLVGDELFVVMEYLAGGSLTDVVTETCMDEAQIAAVCRECLQALEFLHANQVIHRDIKSDNVLLGMEGSVKLTDFGFCAQITPEQSKRSTMVGTPYWMAPEVVTRKAYGPKVDIWSLGIMAIEMVEGEPPYLNENPLRALYLIATNGTPELQNPEKLSPIFRDFLNRCLEMDVEKRGSAKELLQHPFLKLAKPLSSLTPLIMAAKEAMKSNR

Assays:
KKRASAA = molecular target: T1, KKRASAA
AKRASPA = molecular target: T2, AKRASPA
AKRASEA = molecular target: T3, AKRASEA
AAAASKR = molecular target: T4, AAAASKR
AKRPSAA = molecular target: T5, AKRPSAA
EKRASAA = molecular target: T6, EKRASAA
AARASAA = molecular target: T7, AARASAA
AKRESAA = molecular target: T8, AKRESAA
KKAASAA = molecular target: T9, KKAASAA
AAKRSAA = molecular target: T10, AAKRSAA
ARKASAA = molecular target: T11, ARKASAA
AAKKSAA = molecular target: T12, AAKKSAA
KKRKSAA = molecular target: T13, KKRKSAA
PKRASAA = molecular target: T14, PKRASAA
RKKKSAA = molecular target: T15, RKKKSAA
ARRASAA = molecular target: T16, ARRASAA
AKAASAA = molecular target: T17, AKAASAA
AKRKSAA = molecular target: T18, AKRKSAA
AKRASAA = molecular target: T19, AKRASAA

| Protein | rel rate (%), Cdc42-activated (KKRKSAA = 100) (KKRASAA) | rel rate (%), Cdc42-activated (KKRKSAA = 100) (AKRASPA) | rel rate (%), Cdc42-activated (KKRKSAA = 100) (AKRASEA) | rel rate (%), Cdc42-activated (KKRKSAA = 100) (AAAASKR) | rel rate (%), Cdc42-activated (KKRKSAA = 100) (AKRPSAA) | rel rate (%), Cdc42-activated (KKRKSAA = 100) (EKRASAA) | rel rate (%), Cdc42-activated (KKRKSAA = 100) (AARASAA) | rel rate (%), Cdc42-activated (KKRKSAA = 100) (AKRESAA) | rel rate (%), Cdc42-activated (KKRKSAA = 100) (KKAASAA) | rel rate (%), Cdc42-activated (KKRKSAA = 100) (AAKRSAA) | rel rate (%), Cdc42-activated (KKRKSAA = 100) (ARKASAA) | rel rate (%), Cdc42-activated (KKRKSAA = 100) (AAKKSAA) | rel rate (%), Cdc42-activated (KKRKSAA = 100) (KKRKSAA) | rel rate (%), Cdc42-activated (KKRKSAA = 100) (PKRASAA) | rel rate (%), Cdc42-activated (KKRKSAA = 100) (RKKKSAA) | rel rate (%), Cdc42-activated (KKRKSAA = 100) (ARRASAA) | rel rate (%), Cdc42-activated (KKRKSAA = 100) (AKAASAA) | rel rate (%), Cdc42-activated (KKRKSAA = 100) (AKRKSAA) | rel rate (%), Cdc42-activated (KKRKSAA = 100) (AKRASAA) | activity relative to the activated forms (all peptides) |
| --- | --- | --- | --- | --- | --- | --- | --- | --- | --- | --- | --- | --- | --- | --- | --- | --- | --- | --- | --- | --- |
| B1 | 181% | 3% | 88% | 0% | 11% | 151% | 56% | 295% | 3% | 0% | 9% | 0% | 100% | 184% | 3% | 134% | 3% | 158% | 189% | – |
| B2 | – | – | – | – | – | – | – | – | – | – | – | – | – | – | – | – | – | – | – | <5% of the activity of the activated forms with all peptides |

— US20030088057
